For the test, the target named is T1, 417N/484K/501Y RBD mutant (SARS-CoV-2, Wuhan-Hu-1 RBD backbone …, 417N | 484K | 501Y).
T1 construct: also called RBD KEN
Nature of the test: BLI. The following applies: both partners purified.

B1: V045 (antibody, V domains shown)
VH: QVQLVQSGAEVKKPGASVKVSCKASTYTFTSYYIHWVRQAPGQGLEWMGIINPSGGSTSYAQNFQGRVTMTRDTSTSTVYMELSSLRSEDTAVYYCARGVLIPAAGGDFDYWGQGTLVTVSS
VL: QSALTQPRSVSGSPGQSVTISCTGTSSDVGGYKYVSWYQQHPGKAPKLMIYDVSKRPSGVPDRFSGSKSGNTASLTISGLQAEDEADYYCCSYAGSYSWVFGGGTKLTVL
notes: IgG; donor BRA15; source: recombinant monoclonal IgG, produced and purified as previously described
One may read the Kd as the concentration at which binding is half-saturated. High values mean a looser complex, low ones a tighter complex. For the molecule B1, the Kd is 2.79 nM.

B2: V037 (antibody, V domains shown)
VH: EVQLVESGGGLVQPGGSLRLSCAASEVIVSSNYMSWVRQAPGKGLEWVSVLYSGGSTFYADSVKGRFTISRDNSKNTLYLQMNSLRAEDTAVYYCARDLGPMGAFDIWGQGTMVTVSS
VL: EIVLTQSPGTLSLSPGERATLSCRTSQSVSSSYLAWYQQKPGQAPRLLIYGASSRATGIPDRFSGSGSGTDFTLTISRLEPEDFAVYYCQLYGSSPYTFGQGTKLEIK
notes: as for B1
B2: binding was put at a Kd of 0.241 nM.

B3: V044 (antibody, V domains shown)
VH: QVQLVQSGAEVKKPGASVKVSCKASGYTFTSYDINWVRQATGQGLEWMGWMNPNSGYAGYTQKFQGRITMTRNTSISTAYMELSSLRSEDTAVYFCARISSPTRLDPWGQGTLVTVSS
VL: NFMLTQPHSVSESPGKTVTISCSRSRGSIASSFVQWYQQRPGSSPTTVIYDDNQRPSGVPDRFSGSIDSSSNSASLTISGLKTEDEADYYCQSYDSISWVFGGGTKLTVL
notes: as for B1
The molecule B3 registered a Kd of 3.66 nM.

B4: V061 (antibody, V domains shown)
VH: QVQLVQSGAEVKKPGTSVKVSCKASGYTFKNYGISWVRQAPGQGLEWMGWISAHNGNTNYAQRVQGRVTMTTDTSTSTAYMELRSLRSEDTAVYYCGRESGVASHPGDLDYWGQGTLVTVSS
VL: SYELTQPPSVSVSPGQTARITCSGDALPRQYAYWYQQKPGQAPVLLIYKDSERPSGIPERFSGSSSGTTVTLTISGVQAEDEADYYCQSADSSVVFGGGAKLTVL
notes: as for B1
Molecule B4 came in with a Kd of 10.3 nM.

B5: V057 (antibody, V domains shown)
VH: EVQLVESGGGLVQPGRSLRLSCAASGFTFGDYAMHWVRQAPGKGLEWVSGISWNSGIIGQADSVKGRFTISRDNAKNSLYLQMNSLRVEDTALYYCAKGGGESVEVPADEKLDYWGQGTLVTVSS
VL: QSVLTQPPSVSGAPGQRVTISCTGSSSNIGAGYDVHWYQQLPGTAPKLLIYGNNNRPSGVPDRFSGSKSGTSASLAITGLQAEDEADYYCQSYDSSLSGSWVFGGGTKLTVL
notes: as for B1
In turn, B5 returned a Kd of 22 nM.

B6: V055 (antibody, V domains shown)
VH: QVQLVQSGAEVKKPGSSVKVSCKASGGTFSSYIINWVRQAPGQGLEWMGRIIPILGIANYAQKFHGRVTITADESTSTAYMELSSLRSEDTAVYYCARGGPDPSDSNYAALLYYYYMDVWGKGTTVTVSS
VL: QSVLTQPPSVSAAPGQKVTISCSGSSSNIGSYYVSWYQKLPGTAPKLLIHENNKRPSGIPDRISGSKSGTSATLGITGLQTGDEADYYCGTWDSSLSDVVFGGGTKLTVL
notes: as for B1
Turning to B6, the Kd is 1.99 nM.

B7: V003 (antibody, V domains shown)
VH: EVQLVQSGAEVKKPGESLKISCLGSGYSFTSYWIGWVRQMPGKGLEWMGIIFPADSDTRYSPSFQGQVIISADKSISTAYLQWSSLKASDTAMYYCARLREFGDYYYYGMDVWGQGTTVTVSS
VL: DIQLTQSPSSLSASVGDRVTITCRASQGISSYLAWYQQKPGKAPKLLIYAASTLQSGVPSRFSGSGSGTDFTLTISSLQPEDFATYYCQQLNSYPDFGQGTKLEIK
notes: IgG; donor BRA13; source: recombinant monoclonal IgG, produced and purified as previously described
On to B7, for which the Kd stood at 139 nM.

B8: V048 (antibody, V domains shown)
VH: QVQLVQSGAEVKKPGASVKVSCKASGYTFTSYVISWVRQAPGQGLEWMGWISAYNGNTNYAQKLQGRVTMTTDTSTSTAYMELRSLRSDDTAVYYCARDVAGITMIVEEVIDAFDIWGQGTMVTVSS
VL: SYELTQPSSVSVSPGQTARITCSGDVLAKKYARWFQQKPGQAPVLVIYKDSERPSGIPERFSGSSSGTTVTLTISGAQVEDEADYYCFSAPDNNRVFGGGTKLTVL
notes: as for B1
In turn, B8 gave a Kd of 6.26 nM.

B9: V007 (antibody, V domains shown)
VH: QVQLVQSGAEVKKPGSSVKVSCKASGDTFSTYTISWVRQAPGQGLEWMGRIIPILGVGNYAQKFQGRVTITADKSTSTAYMELSSLRSEDTAVYYCAHTTPPGDAFDIWGQGTMVTVSS
VL: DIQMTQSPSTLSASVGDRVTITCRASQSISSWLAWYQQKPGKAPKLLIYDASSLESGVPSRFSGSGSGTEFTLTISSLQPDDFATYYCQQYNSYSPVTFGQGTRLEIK
notes: as for B7
Consider B9, for which binding was put at a Kd of 5.78 nM.

B10: V053 (antibody, V domains shown)
VH: QVQLVQSGAEVKKPGASVKVSCKASGYTFTSYYMHWVRQAPGQGLEWMGIINPSAGSTTYAQKFQGRVTMTSDTSTSTVYMELSSLKSEDTAVYYCARDFVLVPASYGMDVWGQGTTVTVSS
VL: QSVLTQPASVSGSPGQSITISCTGTSSDVGSYNLVSWFQQHPGKAPKLMIYQVSKRPSGASNRFSGSKSGNTASLTISGLQAEDEADYYCCSYAGSSTVWVFGGGTKLTVL
notes: as for B1
In turn, B10 returned a Kd of 2.49 nM.

B11: V056 (antibody, V domains shown)
VH: QVQLVESGGGVVQPGRSLRLSCAASGFPFSNYGMHWVRQAPGKGLEWVAVISYDGSNKYYADSVKGRFTISRDNSKNTLYLQMNSLRAEDTALYYCAKDSRPLPAAMSTYYYYGVDVWGQGTTVTVSS
VL: not shown
notes: as for B1
As for B11, the Kd came out at 7.58 nM.

B12: V060 (antibody, V domains shown)
VH: QVQLVESGGGVVQPGRSLRLSCAASGFPFSNYGMHWVRRAPGKGLEWVAVISYDGLNKYYADSVKGRFTISRDNSKNTLYLQMNRLRAEDTAVYYCAKDSRPVPGAMSTYYYYGMDVWGQGTTVTVSS
VL: not shown
notes: as for B1
Turning to B12, the dissociation constant Kd was 4.79 nM.

B13: V049 (antibody, V domains shown)
VH: QVQLVESGGGVVQPGRSLRLSCAASRFPFSNYGMHWVRQAPGKGLEWVAVISFDGNNKYYGDSVKGRLTISRDNSKNTLYLQVKSLRPEDTAVYYCAKDISTGLSLALFRSPDGEGMDVWGQGTTVTVSS
VL: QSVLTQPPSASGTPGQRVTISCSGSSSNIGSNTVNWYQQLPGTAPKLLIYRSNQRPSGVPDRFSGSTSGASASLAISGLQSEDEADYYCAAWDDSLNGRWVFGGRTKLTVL
notes: as for B1
Consider B13, for which the Kd worked out at 20.6 nM.

B14: V046 (antibody, V domains shown)
VH: EVQLVESGGGLVQPGRSLRLSCAASGFTFEDYAMHWVRQAPGKGLEWVSGVSWNSGTIGYADSVKGRFIISRDNAKNSLYLQMNSLRAEDTALYYCANLGPTYYDFSRPTPMDVWGKGTTVTVSS
VL: QSALTQPASVSGSPGQSITISCTGTSSDVGGYNYVSWYQQHPGKAPKLIIYDVSNRPSGVSNRFSGSKSGNTASLTISGLQAEDEADYYCSSYTSSSTWVFGGGTKLTVL
notes: as for B1
For the molecule B14, binding was put at a Kd of 2.85 nM.

B15: V033 (antibody, V domains shown)
VH: QVQLVQSGAEVKKPGASVKVSCKASGYTFTSYGISWVRQAPGQGLEWMGWISAYNGNTNYAQKLQGRVTMTTDTSTSTAYMELRSLRSDDTAVYYCARGRFCSSTSCYRAAPNYYYYYMDVWGKGTTVTVSS
VL: NFMLTQPHSVSESPGKTVTISCTRSSGSIASNYVQWYQQRPGSAPTTVIYEDNQRPSGVPDRFSGSIDSSSNSASLTISGLKTEDEADYYCQSYDSSNPYWVFGGGTKLTVL
notes: IgG; donor BRA14; source: recombinant monoclonal IgG, produced and purified as previously described
Consider B15, for which the affinity, expressed as Kd, was 10.7 nM.

B16: V039 (antibody, V domains shown)
VH: QVQLQESGPGLVKPSQTLSLTCTVSGGSISSGSYYWSWIRQPAGKGLEWIGRIYTSGSTNYNPSLKSRVTISVDTSKNQFSLKLSSVTAADTAVYYCARADYSDYDNYYFDYWGQGTLVTVSS
VL: NFMLTQPHSVSESPGKTVAISCTRSSGSIASNYVHWYQQRPGSSPTTVIYDDNQRPSGVPDRFSGSIDSSSNSASLTISGLKTEDEADYYCQSYDSSNHNWVFGGGTKLTVL
notes: as for B1
For B16, the Kd is 0.542 nM.

B17: V054 (antibody, V domains shown)
VH: QVQLVESGGGVVQPGRSLRLSCAASGFPFSSFGMHWVRQAPGKGLEWVAVISSDGSNKYYADSVKGRFTISRDNSKNTLYLQMNSLRAEDTAVYYCAKEFTYVVVTALWGTENFDIWGQGTMVTVSS
VL: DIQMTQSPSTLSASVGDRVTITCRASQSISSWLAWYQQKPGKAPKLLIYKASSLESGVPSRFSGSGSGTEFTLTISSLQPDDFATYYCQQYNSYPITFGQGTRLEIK
notes: as for B1
In turn, B17 displayed a Kd of 15.6 nM.

B18: V043 (antibody, V domains shown)
VH: QLQLQESGPGLVKPSETLSLTCTVSGGSISSNNYYWGWIRQPPGKGLECIGTIYYSGNTYYNPSLKSRVTISVDTSKNQFSLKLGSVTAADTAVYYCARQQWLRDAFHIWGQGTMVTVSS
VL: NFMLTQPHSVSESPGKTVTISCTGSSGSIASNYVQWYQQRPGSAPTIVIYEDNQRPSGVPDRFSGSIDSSSNSASLTISGLKTEDEADYYCQSYDSNIHVVFGGGTKLTVL
notes: as for B1
B18 had a Kd of 4.02 nM.

B19: V032 (antibody, V domains shown)
VH: QVQLVESGGGVVQPGRSLRLSCAASGFTFSSYGMHWVRQAPGKGLEWVAVISYDGSNKYYADSVKGRFTISRDNSKNTLYLQMNSLRAEDTAVYYCAKVSGPYCSSTSCYTGYWDYWGQGTLVTVSS
VL: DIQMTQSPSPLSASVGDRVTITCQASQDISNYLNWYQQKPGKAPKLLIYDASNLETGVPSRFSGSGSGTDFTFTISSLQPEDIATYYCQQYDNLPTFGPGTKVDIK
notes: as for B15
Molecule B19 yielded a Kd of 27.3 nM.

B20: V051 (antibody, V domains shown)
VH: QVQLVESGGGVVQPGRSLRLSCEASGFTFSTYAMHWVRQAPGKGLEWVAVISYDGNNKYYADSVKGRLTVSRDNSKNTLYLQMNSLRAEDTAEYYCARDDGGYCSSLSCPMDVWGQGTTVTVSS
VL: SYELTQPPSVSVAPGKTARITCGGNSIGSKSVHWYQQRPGQAPVLVIYYDSDRPSGIPERFSGSNSGNTATLTISRVEAGDEADYYCQVWDSTLVFGGGTKLTVL
notes: as for B1
B20 showed a dissociation constant (Kd) of 7.05 nM.

B21: V004 (antibody, V domains shown)
VH: QVQLQESGPGLVKPSQTLSLTCTVSGGSISSGSYYWSWIRQPAGKGLEWIGRIYTSGSTNYNPSLKSRVTISVDTSKNQFSLKLSSVTAADTAVYYCARDTTDDYYVIWGQGTLVTVSS
VL: DIQMTQSPSTLSASVGDRVTITCRASQSIRSWLAWYQQKPGKAPKLLIYDASSLESGVPSRFSGSGSGTEFTLTISSLQPDDFATYYCQQYNTHFRTFGQGTKVEIK
notes: as for B7
B21 displayed a Kd of 2.92 nM.

B22: V042 (antibody, V domains shown)
VH: QLQLQESGPGLVKPSETLSLTCTVSGGSISSSTNYWGWIRQPPGKGLEWIGSIDYSGSTYYNPSLKSRVTMSVDTSKNQFSLKLSSVTATDTAMYYCARHVIDDSRGYYPAALDHWSQGTLVTVSS
VL: EIVLTQSPATLSLSPGERATLSCRASQSVNNYLAWYQQKPGQAPRLLIYDASNRATGVPARFSGSGSGTDFTLTISSLEPEDFAVYFCQQRSNWPPMYTFGQGTKLEIK
notes: as for B1
Take B22: the Kd turned out to be 23.3 nM.

B23: V050 (antibody, V domains shown)
VH: EVQLVESGGGLVKPGGSLRLSCAASGFSFSNAWMSWVRQAPGKGLEWVGRIKSKTDGGTTDYAAPVKGRFTISRDDSQNTLYLQMNSLKTEDTAVYYCITDRFRVHIRGYYGQGTLVTVSS
VL: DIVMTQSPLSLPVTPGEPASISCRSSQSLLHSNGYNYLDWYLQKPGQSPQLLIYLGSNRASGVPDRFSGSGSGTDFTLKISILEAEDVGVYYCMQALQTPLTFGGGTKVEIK
notes: as for B1
B23 displayed a Kd of 66.7 nM.

B24: V038 (antibody, V domains shown)
VH: QVQLVQSGAEVKKPGASVKVSCKASGYTFTGYYVHWVRQAPGQGLEWMGWINPNSGGTNFAQRFQGRVTMTRDTSISTAYMELSRLRSDDTAVYYCARGITVYGVAPDAFDIWGQGTMVTVSS
VL: DIQMTQSPSSLSASVGDRVTITCQASQDISNYLNWYQQKPGKAPKVLIYDASNLEPGVPSRFSGSGSGTDFTFTISSLQPEDIATYYCQQYDNLITFGQGTRLEIK
notes: as for B1
For B24, the Kd came out at 2.37 nM.

For the origin of these results see publication PMC9270183 (The Journal of Experimental Medicine, 2022).
